The text below walks through data of a protein production outcome set (Wang et al. 2014).

A short description of this data set: label from the status in PepcDB records.

Take “MPEKPTEDARFYGRRKGKPLRATRQRLLDTMLPALTLPLAGLGEGERLDPRGLFPRPVDQLWLEIGFGGGEHLVAQAAAHPEVGLIGSEVFAYGVGKALSQIDETGVDNIRLWPEDVRQVLPALPDGCLQRLFVLFPDPWPKRRHARRRMIQPARLDDFARLLADGGELRVASDDMGYVRWTLMHVTAHPAFRWTAQGPTDWRERPADWVETRYEAKALQAGRKPAYLIFRRRPRAADPGTLAEAPAGEGADNNP”: the protein production entry was “failed”. For “MPELILKPCEPVRSALKQDVAALEAPPTGGNVDKSATTSNSVTPATSAAPSPAPASEKGEDKDKDSEKEKDKTSAEKSEVKQEQEAEEDKKPGDVKQENPVEEAAGDTKPSDAEVKTEVAKTEPKEETKDPEVKEEPKTEEKEKEKVDDKKPIPPTTVIDDDDDDVMIVKEDGELEKPSASSPKDQKAVAAATSAATGATGK” the value was “failed”.

Regarding “MPEQTYMYAYVTLPHHDQRERYTQKCYRDGRRIVLASYDLMGSERFSFKEKLRKSMKGMNESAERWVSEVRQGENLNSIDNYYRLYKGKI”, the protein production entry is listed as “failed”.

In the case of “MPEVIFNGPAGRLEGRYQPSKEKSAPIAIILHPHPQFGGTMNNQIVYQLFYLFQKRGFTTLRFNFRSIGRSQGEFDHGAGELSDAASALDWVQSLHPDSKSCWVAGYSFGAWIGMQLLMRRPEIEGFMSIAPQPNTYDFSFLAPCPSSGLIINGDADKVAPEKDVNGLVEKLKTQKGILITHRTLPGANHFFNGKVDELMGECEDYLDRRLNGELVPEPAAKRIR”, the protein production result is on record as “not failed”.

For the sequence “MPFAIGQRWLSESENALGLGVITALDQRTVTIYFPAADETRIYAMAQAPLSRIVFSKGETLSHQAGWQGEILDVQNMNGLLFYLVKNPQDEDVIVQERDISPIISFSQAKDRLFSAQI”, the protein production result was “failed”.

For the sequence “MPFCPEEFYCRITQNIESLNNIAKIQHAANTDYLTDLANRRAFFRSAESRIKEYINKKVPYCLAMIDVDFFKKVNDTYGHDSGDQVLKVIALYMRKHFGAGLTARLGGEEFAVLLHGLDADYLHNKLDDFRREIAVSSIPAGDTSISITLSLGVVFDSEDELSKQMNEADNALYAAKENGRNQIVVFGAELDDLEHHHHHH”, the protein production result is reported as “failed”. As for “MPFGLKSSQSIDDKFMSITQMKNLIHYVKKNDALSHLCIYILIITGSRFKPVQHLRYEDLNFKKSCIHLNDTKNKYSKRNVKVRIKDLEYIQSVINKHPINQNGYIFHNFINFISYSAINDVLVRFCLKYKYDKYTLKSLRHTHCSYLLAKGISIQYISKRLGHADIHTTLKIYSHLIKEFEDSENSLIEKNLNDLFSDLEHHHHHH”, the protein production entry is “not failed”. For “MPFKEYDHDFIDKNKKASSSVRLALLLSVLIIIFNLLFFKHRDFQEQLHNNPGSYTDLIALVFLFFILSCTSKISLNHTSALSIRLGLHVWICSATFDFMDEFIYQPKLVGYYVEDMLRIIGMFGVGFGVYTLIQQINNKYVEARIQSFSDELTQLPNRRFFINELKKLEAKTPYLFIIDIDNFKVINDKYGHTKGDEILSKFGHILSRFDNSEVVATRIGGEEFAIILYAGTQDRAEKLAREVLKNANKIIIKNMHHLSVSIGAGKKQPQEPTEHFMKRVDVALYQAKNTGKGKVEWALEPKEKTQ” the value was “failed”; for “MPFLLTLLAFLRVLRRLLKDEKFRALLYITAFTLAIGTFFYHSVEGWDWLDSLYFSVITLTTVGYGDFTPKTNIGKFFTIIYIFIGLGILVAFVTPIGEYIVDRRLDRIQEREQKKEIPENEFDFSGVIGKLRGKK”, “failed”; for “MPFLYRLASLLIALLVLPVQAAEMRVALLRTSGVETLDALTVDGGSWVRRVPLSHTAVLIEHHAATLLFDTGLGRDIDAQFRADMPWWAAPLFAYQKVVPARDQLDAAGIRVDRILLSHAHWDHASGLVDFPEVPVWAPYEEIAFSRIATPPAAFPSQFRHGVRWQPYSFDPRPFMGFDESLDLFGDGRLVLVPLPGHTPGSVGLFVTLDSGRRLFFSGDTSWRLEGVEGPRQKFFAGRALVDRDPARTLAQLAKIRLLLRSDPRLSVIPAHDARVQAALGYFPHWLE”, “failed”. For “MPFSISGRKGSEMMAKLDELKQKLTAKQIQAAYLLVENELMESNNEEKRTQDEMANELGINRTTLWEWRTKNQDFIAFKSEVADSFLAEKREQVYSKLMQLILGPQPSVKAMQLYMQRFGLLTDKKVIEGDLGNATRTNAEIEEQLQKLKKLTGE” the value was “not failed”. Next, “MPFSWLKPIDYARIFVGWASIFIIPLITLPSIIELALIVAVILFCAFGVVKMAERLAHILGDPFGSLILTLSIVIIEVILICAVMLGPADSTTAGRDSVMAVSMIIMGLVVGLCLLIGGLRHGSMPHNGVGTPTYLVLIATFSVIAFAVPAFRGEYSTGQALVISTLTAVVYGFFLFRQMGAQAGEFQEVEVAEKADDAAKWEVPFRGLILIITVLPIVLLSHDMATVMDEVLASLGAPVAMAGLIIATIVFLPETITSLKAAWTGEIQRVSNLAHGAQVSTVGLTIPAVLVIGVITGQDVVLGETPINLLLLGTTIAVTAIAFSSKKVSAVHGSVLLMLFGVYMMSMFA”: “failed”; “MPFTLHLRSRLPSAIRSLILQKKPNIRNTSSMAGELRPASLVVLPRSLAPAFERFCQVNTGPLPLLGQSEPEKRMLPPQGAISETRMGHPQFWKYEFGACTGSLASLEQYSEQLKDMVAFFLGCSFSLEEALEKAGLPRRDPAGHSQAGAYKTTVPCVTHAGFCCPLVVTMRPIPKDKLEGLVRACCSLGGEQGQPVHMGDPELLGIKELSKPAYGDAMVCPPGEVPVFWPSPLTSLGAVSSCETPLAFASIPGCTVMTDLKDAKAPPGCLTPERIPEVHHISQDPLHYSIASVSASQKIRELESMIGIDPGNRGIGHLLCKDELLKASLSLSHARSVLITTGFPTHFNHEPPEETDGPPGAVALVAFLQALEKEVAIIVDQRAWNLHQKIVEDAVEQGVLKTQIPILTYQGGSVEAAQAFLCKNGDPQTPRFDHLVAIERAGRAADGNYYNARKMNIKHLVDPIDDLFLAAKKIPGISSTGVGDGGNELGMGKVKEAVRRHIRHGDVIACDVEADFAVIAGVSNWGGYALACALYILYSCAVHSQYLRKAVGPSRAPGDQAWTQALPSVIKEEKMLGILVQHKVRSGVSGIVGMEVDGLPFHNTHAEMIQKLVDVTTAQV”: “failed”. “MPFTPVDWAILGIVAISALISLKRGFVKEALSLTTWIIAGVVAWMFGAGLSQYLVNYIETPSARVIASCTILFVATLLVGAMVNFLIGELIRVTGLSGTDRFLGMVFGAARGGLLVVVAVGLLSLGPVQQDQWWQQSRLVPQFLIVADWSKNLILGMSSKWLASGISVPADLPFKEQILPPTLPQDVLGKSSSTK”: the protein production result is on record as “failed”.

For the sequence “MPFVAVATCLSPLIICYPQNRTMECDLLMIKIEKVINKNDLKAFIAFPSSLYPDDPNWIPPLFIERNEHLSAKNPGTDHIIWQAWVAKKAGQIVGRITAQIDTLHRERYGKDTGHFGMIDAIDDPQVFAALFGAAEAWLKSQGASKISGPFSLNINQESGLLIEGFDTPPCAMMPHGKPWYAAHIEQLGYHKGIDLLAWWMQRTDLTFSPALKKLMDQVRKKVTIRCINRQRFAEEMQILREIFNSGWQHNWGFVPFTEHEFATMGDQLKYLVPDDMIYIAEIDSAPCAFIVGLPNINEAIADLNGSLFPFGWAKLLWRLKVSGVRTARVPLMGVRDEYQFSRIGPVIALLLIEALRDPFARRKIDALEMSWILETNTGMNNMLERIGAEPYKRYRLYEKQI”, the protein production entry is given as “failed”. Next, “MPGAVDFKERISRQRPHDRETYGHAGNTDLQDIVYQLESDRGRIVNSAAVRRLQQKTQVFPLERNAAVRSRLTHSLEVQQTGRFIVRTLFRQLGPRAAEVGLDGLEGALESLVEMACLMHDVGNPPFGHFGEYAINDWFERNLDALFERRIPPGQGDGLLQQRMLTDLKHFEGNAQAIRLVVKLLRLNLTYTQTAGLLKYVRPAYEPKPDKAAANHYLNKKPGFYLSEEAFVDELRRVLGMRPGTRHPVAYIMEAADDISYCLADIEDSVEKGILDIRQLADLLVKKFAVHHSPDAPIPGDADNMSFQRMVDYSLEKAEREPINKVSEFFIRLRVKMIHPLVQHAAQQFIDNFEAVHAGTLGRALMEDGSLPHAIVQTFKDVAMEWVFCHPEVETLELQGYRIIQGLLDFYAPLLRLPAEEFQALAEGRQAAAPHPQLLVRRLPSQQIKAYLEAMKGVAEDPLQRQWEFYHRCRMLQDFVSGMTDQHAQDEYRALSA”: “failed”. Consider “MPGDTENTSTDTTNEHIDLALYRQLVKQFIDMRRYSTALFWAEKVAVLGGLEPRDIYYQAQCMYLLGEYHRAAHTIQHHKLEKNSLPCFNLLLESLYAAKEFTEAANVIQNVEVEVMTTSLINQPVDASSGCYLESNSVFGGEENHRNELLSSIYLMKGKVYEALDNRGMAMDFYVQALHKSIYCFEALEALVQHEMLMAWEEFELMHHLPLAQQSSEADAKFILKLYESRLKKYYELISARNAEEMSPIVNPDILQFIKEFTARVQQSGSSDTQMPKVSAVKVPLTPSQFMSPAQKVLEDLKAPTFSLQTSLSKASSLIDASHRSMFDSSSRRRSRDHDTDTLIPIAECLDRVQRSTDLMAAEAEKCFYDCDYKQCLKILNELLKVDPFHNTALTIQIACLVENGDFNRLFYVAHKLVDRYPDKAISWYAVGCYYDMIGKSDPARRYLSKATALDRLYGPAWLAYGHSFANENEHEQAMAAYFKATQLMRGCHLPLLYIGVECGLTKNLELAEKFFLQAMNIAPLDVYVLHELGVIKYEYEFFDGAATIFQCTVDIVKQRAKSNNEEISSRWEPLFINLGHSLRKVHKYEEALYNFQYALLLKPQSPTTYTSIGFIHALLGNLDPAIEAFHKSLALNRDCIVTSTILKSCIEDLMDDSATIDEICSAALRDVAKNITANSRRVLNSDKFNGMKLKFDEEEEFANSDSNMVVEMSFDT”, for which the protein production entry was “failed”.

In the case of “MPGEEVSQAKQQLKLIIDAYLSESDVDNVLAACDFADLAHSGITRKSGEPYILHPIAVSCILAHMRLDAETLMAALLHDVIEDTEHTKDEIGERFGEVVADLVDGVTKLTHSSDKQYNKAASFRKILQATLQDPRVIIIKLADRYHNMTTLDALRPDKRARIAQETFDIFVPMARIVGMNEMGDNLELLCYQNLDLDMYNNVQEALLETKPRRCEYQTKWEHHLGELLTTYHIHGRVKKKNNNIELLRHFVKNEIDLQELTHSHAFEIILNSISDCDRLVDALKENFQILHFEDHIRRPLPGGNQSIMMKLKGEQTTLSLTIQTELMRKAARFGVVLGENAPQACRSAIQASMQNLTTLIDGECAKTTFNDLLDYLHQEKIWVYTPHGHLHELPQGATVIDFAYSASLFLGNHAVGAKIDGEIRPLSTPLVSGQVIDVITDVLATPNPDWLSFINTQKARRAIQNMLRDQDIEEQLLVGQQALNRALKLFNRSMHDLSESDWLNVLQWRHVENKEALFEQIAVGDLLPQLVANHLYAQDTSDKTGHAPDRLIQGTEGVDVKYAHCCNPILGDPIQGHLSRRGLIVHRARCHNLLHEQHLHPENIMPLQWTSDDLDDVSFTAYLCIDMPLDGEQISELIYLCRKSHTGVEMVQPHGDHTYVNIVVNNRKVVAQIIRDLRMLFGFPRVSRLFTPAAVTESVKIKVS”, the protein production result is listed as “failed”. For “MPGESNIIEWPASRVRVISGASWSRNGQILSGRCKANNGTWFGITKGGRVAFLVNTSLLLDRVKSYSGSELYPVRFLEGNMSPEQFANEVKVHEKETNERHAYSLVVADMTSSSMVHILKPSDTKSDVVIETVPFGVHTLSSYEGLDSTDSARDLLLRRLFTQMVGNLGNVQQRQMEEIAGRFMYDAQAGRDAVFYHSRDEHPNGKLGTQRFGTTSTTALVVKRTREVMLFEKYMEQNGAWNTNNFAFNIQKQQKLYPNLDKEALKRVGVFALEEVNNHEHDIHPDLMPSFFEDDMLKVKFNEMIARHAKLPPIKNIVEDLMMKSPFFIDSVDGAGKKVRYRTVRTLGMDIKANRPQGRFYERHLNDNGEWVG” the value was “failed”.

“MPGIKVHPNESFDEAYRKFKKQVDRNLVVTEVRARRFFEPMTEIRKKQKISARKKMLKRLYMLRRYESRLLEHHHHHH”: the protein production result is “failed”.
